Source: paper PMC3762189, “Mechanism of synergistic activation of Arp2/3 complex by cortactin and N-WASP” (eLife, 2013)

Target: G-actin (rabbit muscle actin monomers) (rabbit, UniProt P68135 1-377)
Experiment: fluorescence polarisation; competition: anisotropy of 50 nM Rhodamine-VCA with 150 nM G-actin and increasing VCA or VCA mutants; 10 mM Hepes pH 7.0, 50 mM KCl, 1 mM MgCl2, 1 mM EGTA, 1 mM DTT, 0.2 mM ATP, 350 nM Latrunculin B; KD is the mean of at least three fits
Settings: both partners purified

B1: N-WASP-VCA (domain or fragment)
chain: PVSCSGRDALLDQIRQGIQLKSVTDAPESTPPAPAPTSGIVGALMEVMQKRSKAIHSSDEDEDEDDDEDFEDDDEWED
notes: N-WASP, VCA region (verprolin homology, central, acidic); The text implies a GST tag with a TEV site on the VCA constructs; also called monomeric VCA; WT; source: purified as described previously (Hetrick et al., 2013)
Kd: 560 ± 30 nM
